In patent US11274309B2 (dated 2022):

Tests used:
peptide on HLA-A*02:01 = target: T1, peptide on HLA-A*02:01 (human); assay: activation reporter or marker
T1 peptide: VYALPLKML

peptide on HLA-A*24:02 = target: T2, peptide on HLA-A*24:02 (human); assay: activation reporter or marker
T2 peptide: VYALPLKML

B1: JG9-TCR (TCR, V domains shown)
Valpha: GQQLNQSPQSMFIQEGEDVSMNCTSSSIFNTWLWYKQEPGEGPVLLIALYKAGELTSNGRLTAQFGITRKDSFLNISASIPSDVGIYFCAGPMKTSYDKVIFGPGTSLSVIP
Vbeta: DAGVIQSPRHEVTEMGQEVTLRCKPISGHDYLFWYRQTMMRGLELLIYFNNNVPIDDSGMPEDRFSAKMPNASFSTLKIQPSEPRDSAVYFCASSSANYGYTFGSGTRLTVV
Q: Which results are given for B1?
A: binding result (peptide on HLA-A*02:01): no recognition; binding result (peptide on HLA-A*24:02): no recognition
